The test deals with T1, full-length PTX3 (#1826-TS; R&D Systems) (UniProt P26022 18-381).
T1 construct: bought protein; source: bought: R&D Systems (#1826-TS)
The experiment in a line: SPR; BIAcore 3000; full-length PTX3 amine-coupled to a CM5 chip (4000-6000 RU); N-terminal CD44 as analyte; PBS pH 7.2, 10 μl/min, 1 min association, 2 min dissociation; 1:1 Langmuir model. To be noted: both partners purified. (SPR reads the build-up and loss of mass on a sensor chip optically.)

This passage reports Kd, koff and kon results from article PMC8797470, “Disruption of the pentraxin 3/CD44 interaction as an efficient therapy for triple‐negative breast cancers” (Clinical and Translational Medicine, 2022).

T1 sequence (P26022 18-381): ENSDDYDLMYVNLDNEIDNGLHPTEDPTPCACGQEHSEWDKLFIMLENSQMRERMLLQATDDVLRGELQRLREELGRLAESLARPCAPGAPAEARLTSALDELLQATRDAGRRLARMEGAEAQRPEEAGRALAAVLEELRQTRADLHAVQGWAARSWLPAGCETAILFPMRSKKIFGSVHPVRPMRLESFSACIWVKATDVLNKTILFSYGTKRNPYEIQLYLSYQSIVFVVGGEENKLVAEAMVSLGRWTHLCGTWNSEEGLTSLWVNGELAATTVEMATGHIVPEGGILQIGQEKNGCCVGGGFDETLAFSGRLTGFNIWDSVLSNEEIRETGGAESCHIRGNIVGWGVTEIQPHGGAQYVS

B1: N-terminal of CD44 (#CD44-3961H; Creative Biomart) (domain or fragment)
chain: QIDLNITCRFAGVFHVEKNGRYSISRTEAADLCKAFNSTLPTMAQMEKALSIGFETCRYGFIEGHVVIPRIHPNSICAANNTGVYILTSNTSQYDTYCFNASAPPEEDCTSVTDLPNAFDGPITITIVNRDGTRYVQKGEYRTNPEDIYPSNPTDDDV
modifications: Bought protein with limits not printed. Limits are the conventional N-terminal hyaluronan-binding domain (Link domain plus flanks, mature start 21 to 178). This range covers the predicted PTX3 …
On to B1, for which binding was put at a Kd of 21 nM; the koff (as a rule, the rate constant with which the complex falls apart) was found to be 2.43e-06 s⁻¹; the kon (as a rule, the rate constant with which the complex forms) stood at 130 M⁻¹ s⁻¹.
